Measurements taken from patent US20210238298A1 (ALLIGATOR BIOSCIENCE, published 2021).

Target: T1, Human OX40 (R&D systems, #3358_OX) (human, UniProt P43489 29-216)
T1 construct: Bought; Several catalogue numbers are given for it; also called human OX40 (R&D Systems, 3388-OX); OX40-Fc (R&D systems, #3358_OX); not shown: Fc part
T1 sequence: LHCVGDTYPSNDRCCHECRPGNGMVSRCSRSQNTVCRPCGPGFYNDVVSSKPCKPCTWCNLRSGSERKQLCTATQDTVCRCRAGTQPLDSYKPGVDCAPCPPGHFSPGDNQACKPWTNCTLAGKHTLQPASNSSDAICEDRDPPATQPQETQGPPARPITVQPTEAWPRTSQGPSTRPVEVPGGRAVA
Assay: ELISA: human OX40 coated, goat anti-human kappa light chain HRP, luminescence
Protocol: ELISA plates were coated with human with CTLA-4 (BMS, Orencia) or human OX40 (R&D Systems, 3388-OX) at 0.4 or 0.5 μg/ml, respectively. The ELISA plates were washed with PBST and then blocked with PBST+2% BSA for 1h at room temperature and then washed again with PBST. The bispecific molecules were added in dilution series to the plates and incubated for 1h at room temperature. The ELISA plates were washed, and binding was detected using goat anti human kappa light chain HRP for 1 h at room temperature. SuperSignal Pico Luminescent was used as substrate and luminescence was measured using Fluostar Optima.

B1: anti-OX40 antibody 1168/1135 (antibody, V domains shown)
VH: EVQLLESGGGLVQPGGSLRLSCAASGFTFSGSSMSWVRQAPGKGLEWVSSISYYGGYTYYADSVKGRFTISRDNSKNTLYLQMNSLRAEDTAVYYCARYFPHYYFDYWGQGTLVTVSS
VL: not shown
notes: Tested as IgG
EC50 (read off the curve): ~0.2 nM
